From patent US20160009823A1 (Hoffmann-La Roche, published 2016)

Assays:
[1] = target: mono-digoxygenated protein DIG-myoglobin; assay: SPR (Biacore), DIG-Myoglobin as analyte
[2] = target: digoxygenated protein Dig-BP4; assay: SPR (Biacore), antibody captured by anti-mouse IgG, DIG-BP4 as analyte
[3] = target: digoxygenated protein Dig-BP4; assay: SPR (Biacore); unit differs from Table 3 (33 pM)
[4] = target: mono-digoxygenated protein DIG-myoglobin; assay: SPR (Biacore), DIG-Myoglobin as analyte; remark: listed apart in the source
[5] = target: mono-digoxygenated protein DIG-myoglobin; assay: SPR (Biacore), DIG-Myoglobin as analyte, replicate
[6] = target: T1, recombinantly produced soluble extracellular domain of the RTK Her2 (UniProt P04626 23-652); assay: SPR (BiaCore), zoom; AKH-5 captured, Her2 and siRNA-DIG in both orders
T1 construct: extracellular domain; also called Her2-ECD; Her2ECD

[7] = target: digoxygenated protein Dig-BP4; assay: SPR (Biacore), antibody captured by anti-human IgG, DIG-BP4 as analyte
human CD33-Fc fusion = target: T2, human CD33-Fc fusion (human, UniProt P20138 18-259); assay: SPR, <CD33>-<DIG> on human CD33-Fc fusion as ligand, then DIG-siRNA
T2 construct: not shown: Fc part not described

human VEGFR2-Fc = target: T3, human VEGFR2-Fc; assay: SPR, drawn table under the head 'Affinity for DIG-siRNA' with a Capture column
T3 chain: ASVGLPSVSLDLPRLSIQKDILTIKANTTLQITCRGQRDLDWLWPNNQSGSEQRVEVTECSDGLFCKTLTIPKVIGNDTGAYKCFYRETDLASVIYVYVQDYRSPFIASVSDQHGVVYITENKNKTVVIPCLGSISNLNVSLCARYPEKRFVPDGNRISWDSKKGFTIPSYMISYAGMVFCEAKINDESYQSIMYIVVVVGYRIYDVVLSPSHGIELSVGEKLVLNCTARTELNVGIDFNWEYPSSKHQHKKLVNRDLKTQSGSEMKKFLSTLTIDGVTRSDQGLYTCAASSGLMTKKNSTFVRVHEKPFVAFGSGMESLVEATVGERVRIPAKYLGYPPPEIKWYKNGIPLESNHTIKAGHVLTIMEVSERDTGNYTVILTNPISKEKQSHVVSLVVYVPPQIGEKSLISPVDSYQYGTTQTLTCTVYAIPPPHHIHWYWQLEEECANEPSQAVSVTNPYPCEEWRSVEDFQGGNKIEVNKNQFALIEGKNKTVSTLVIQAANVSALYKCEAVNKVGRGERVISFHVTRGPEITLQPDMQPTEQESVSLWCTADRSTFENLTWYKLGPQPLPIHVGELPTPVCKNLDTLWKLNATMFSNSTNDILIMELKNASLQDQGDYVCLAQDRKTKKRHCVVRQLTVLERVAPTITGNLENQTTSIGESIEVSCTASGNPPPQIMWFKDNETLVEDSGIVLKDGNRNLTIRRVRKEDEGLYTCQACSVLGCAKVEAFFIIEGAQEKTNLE

mouse VEGFR2-Fc = target: T4, mouse VEGFR2-Fc; assay: as above
T4 chain: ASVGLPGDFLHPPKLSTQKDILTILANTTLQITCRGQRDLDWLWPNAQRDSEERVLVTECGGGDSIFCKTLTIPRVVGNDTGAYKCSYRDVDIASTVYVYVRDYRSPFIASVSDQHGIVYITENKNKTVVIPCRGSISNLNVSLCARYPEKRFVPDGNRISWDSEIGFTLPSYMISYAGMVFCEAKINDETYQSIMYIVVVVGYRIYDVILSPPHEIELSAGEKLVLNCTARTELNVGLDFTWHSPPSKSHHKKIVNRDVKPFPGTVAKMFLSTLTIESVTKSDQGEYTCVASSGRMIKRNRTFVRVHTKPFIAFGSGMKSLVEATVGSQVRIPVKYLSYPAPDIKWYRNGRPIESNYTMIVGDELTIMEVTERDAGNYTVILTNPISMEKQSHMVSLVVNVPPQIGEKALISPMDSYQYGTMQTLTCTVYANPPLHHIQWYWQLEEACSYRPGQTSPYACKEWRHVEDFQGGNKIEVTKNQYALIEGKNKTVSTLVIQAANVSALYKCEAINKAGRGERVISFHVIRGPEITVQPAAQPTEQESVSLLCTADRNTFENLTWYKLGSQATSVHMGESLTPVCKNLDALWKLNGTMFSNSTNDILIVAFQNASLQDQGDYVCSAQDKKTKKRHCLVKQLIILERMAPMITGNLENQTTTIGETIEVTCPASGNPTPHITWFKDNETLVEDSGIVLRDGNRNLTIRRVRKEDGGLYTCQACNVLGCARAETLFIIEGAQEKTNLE

mono-digoxygenated protein DIG-myoglobin, sequence (P68082 2-154): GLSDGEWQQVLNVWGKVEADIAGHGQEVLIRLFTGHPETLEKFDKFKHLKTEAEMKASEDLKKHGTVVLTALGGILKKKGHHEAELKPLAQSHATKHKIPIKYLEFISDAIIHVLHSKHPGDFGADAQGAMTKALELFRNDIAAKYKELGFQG
T2 sequence (P20138 18-259): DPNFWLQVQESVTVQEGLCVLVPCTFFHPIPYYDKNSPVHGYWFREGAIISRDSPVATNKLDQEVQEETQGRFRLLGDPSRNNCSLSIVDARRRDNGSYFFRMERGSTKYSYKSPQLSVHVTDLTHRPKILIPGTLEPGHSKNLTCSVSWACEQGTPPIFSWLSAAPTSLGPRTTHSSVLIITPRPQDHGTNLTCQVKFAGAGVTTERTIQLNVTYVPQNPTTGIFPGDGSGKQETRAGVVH

B1: hybridoma-derived murine <Dig> 19-11 antibody (antibody, V domains shown)
VH: EVQLVESGGGLVKPGGSLKLSCAVSGFTFSDYAMSWIRQTPENRLEWVASINIGATYAYYPDSVKGRFTISRDNAKNTLFLQMSSLGSEDTAMYYCARPGSPYEYDKAYYSMAYWGPGTSVTVSS
VL: DVQMTQSTSSLSASLGDRVTISCRASQDIKNYLNWYQQKPGGTVKLLIYYSSTLLSGVPSRFSGRGSGTDFSLTITNLEREDIATYFCQQSITLPPTFGGGTKLEIK
notes: also called murine DIG-IgG 19-11; <DIG>M-19-11
[1]
  Kd: 0.386 nM
  koff: 0.000676 s⁻¹
  kon: 1.75e+06 M⁻¹ s⁻¹
[2]
  Kd: 0.033 nM
[3]
  Kd: 33 nM
[4]
  fold better affinity than <DIG>-hu2 and the disulfide-stabilized <DIG> scFv: ~100 fold
[5]
  Kd: 0.295 nM
  koff: 0.000675 s⁻¹
  kon: 2.28e+06 M⁻¹ s⁻¹

B2: AKH-5 (bispecific antibody)
chain: QVQLLQSGAELKKPGESLKISCKGSGYSFTSYWIAWVRQMPGKGLEYMGLIYPGDSDTKYSPSFQGQVTISVDKSVSTAYLQWSSLKPSDSAVYFCARHDVGYCSSSNCAKWPEYFQHWGQGTLVTVSSGGGGSGGGGSGGGGSGGGGSQSVLTQPPSVSAAPGQKVTISCSGSSSNIGNNYVSWYQQLPGTAPKLLIYGHTNRPAGVPDRFSGSKSGTSASLAISGFRSEDEADYYCASWDYTLSGWVFGGGTKLTVLGGGGGSGGSLAALTAHQACHLPLETFTRHRQPRGWEQLEQCGYPVQRLVALYLAARLSWNQVDQVIRNALASPGSGGDLGEAIREQPEQARLALTLAAAESERFVRQGTGNDGGGGSGGGGSQVQLVESGGGLVKPGGSLRLSCAASGFTFSDYAMSWIRQAPGKCLEWVSSINIGATYIYYADSVKGRFTISRDNAKNSLYLQMNSLRAEDTAVYYCARPGSPYEYDKAYYSMAYWGQGTTVTVSSGGGGSGGGGSGGGGSGGGGSDIQMTQSPSSLSASVGDRVTITCRASQDIKNYLNWYQQKPGKAPKLLIYYSSTLLSGVPSRFSGSGSGTDFTLTISSLQPEDFATYYCQQSITLPPTFGCGTKVEIKHHHHHH
notes: also called <HER2> scFv-PExII-<DIG> scFv-His6; drawn as <Her2> - PExI - <DIG> - 6xHis
[6]
  binding result: binds

B3: recombinant humanized <Dig> IgG antibody (antibody, V domains shown)
VH: QVQLVESGGGLVKPGGSLRLSCAASGFTFSDYAMSWIRQAPGKGLEWVSSINIGATYIYYADSVKGRFTISRDNAKNSLYLQMNSLRAEDTAVYYCARPGSPYEYDKAYYSMAYWGQGTTVTVSS
VL: DIQMTQSPSSLSASVGDRVTITCRASQDIKNYLNWYQQKPGKAPKLLIYYSSTLLSGVPSRFSGSGSGTDFTLTISSLQPEDFATYYCQQSITLPPTFGGGTKVEIKR
notes: also called hu<DIG> IgG; <DIG>hu2; not shown: hinge-CH2-CH3 of human IgG1
[1]
  Kd: 15.8 nM
  koff: 0.00982 s⁻¹
  kon: 620000 M⁻¹ s⁻¹
[7]
  Kd: < 0.076 nM
[5]
  Kd: 11.8 nM
  koff: 0.00881 s⁻¹
  kon: 749000 M⁻¹ s⁻¹

B4: bispecific <CD33>-<DIG> antibody (bispecific antibody, human IgG1, kappa)
heavy: not shown
light: DIQLTQSPSTLSASVGDRVTITCRASESLDNYGIRFLTWFQQKPGKAPKLLMYAASNQGSGVPSRFSGSGSGTEFTLTISSLQPDDFATYYCQQTKEVPWSFGQGGTKVEVKEIKRTVAAPSVFIFPPSDEQLKSGTASVVCLLNNFYPREAKVQWKVDNALQSGNSQESVTEQDSKDSTYSLSSTLTLSKADYEKHKVYACEVTHQGLSSPVTKSFNRGEC
Human CD33-Fc fusion
  binding result: binds

B5: <VEGFR2(D1F7)-DIG>_001 (bispecific antibody, human IgG1, kappa)
heavy: not shown
light: QSVLTQPPSASGTPGQRVTISCSGSTSNIGTNTANWFQQLPGTAPKLLIHNNNQRPSGVPDRFSGSKSGTSASLAISGLQSEDEADYYCAAWDDSLNGHWVFGGGTKLTVLRTVAAPSVFIFPPSDEQLKSGTASVVCLLNNFYPREAKVQWKVDNALQSGNSQESVTEQDSKDSTYSLSSTLTLSKADYEKHKVYACEVTHQGLSSPVTKSFNRGEC
Human VEGFR2-Fc
  binding result: binds
Mouse VEGFR2-Fc
  binding result: binds
